{
  "source": "patent US20070185028A1",
  "about": "“Compositions and methods for treatment of protein misfolding and protein aggregation diseases” (priority 2004, published 2007)",
  "molecular_target": "T1, Aβ1-42 (Homo sapiens, UniProt P05067)",
  "T1 construct": "Aβ1-42 (American Peptide); purchased American Peptide",
  "assay": "Aβ1-42 fibril formation ThT fluorescence assay",
  "type": "biochemical",
  "details": "for decrease in ThT fluorescence of Aβ1-42: 30 μM Aβ1-42, 48 hrs",
  "description": "The effect of five synthesized αB crystallin peptides STSLSPFYLRPPSFLRAP (ST), DRFSVNLDVKHFS (DR), HGKHEERQDE (HG), LTITSSLSSDGV (LT), and ERTIPITRE (ER) on Aβ1-42 fibrillation was measured using the ThT fluorescence assay (FIG. 1). The formation and inhibition of Aβ1-42 fibrils was qualitatively verified by fluorescence and bright-field microscopy. The concentration and stoichometry of the peptides was varied relative to Aβ1-42 to establish a concentration curve. In addition, the effect of two known inhibitors of Aβ1-42 fibrillation (APS and NAP) and a control neuropeptide (AT1) with no fibril inhibition activity was measured and compared to the effect of the αB crystallin peptides on Aβ1-42 fibrillation. The ThT fluorescence of 30 μM Aβ1-42 alone incubated at 37° C. for 48 hrs increased from ˜350,000 to ˜450,000 RFU. […] In contrast, 6 μM DR, LT, and […] had no effect on Aβ1-42 fibril formation. […] Increasing the concentration of the DR peptide to 30 μM decreased the ThT fluorescence by approximately 50%. […] However, when the concentrations of the LT and ER peptides were increased to 150 μM, a 60-100% decrease in ThT fluorescence was measured. […] The negative control peptide AT1 had no effect on Aβ1-42 fibril formation even at a concentration as high as 300 μM.\nThe Thioflavin T (ThT) fluorescence of Aβ1-42 in the presence of varying concentrations of αB crystallin peptides and controls was measured. […] Addition of 6 μM DR, LT, and ER had no effect on the ThT fluorescence of Aβ1-42. When the concentration of the peptides was increased to 30 μM (1:1::peptide:Aβ1-42), the αB crystallin peptides ST, DR, HG decreased the ThT fluorescence by 50-100%. At the same concentrations, APS and NAP decreased the ThT fluorescence by 30-100%. When the concentration of the peptides was increased further to 150 μM ([…]), four of the five αB crystallin peptides DR, HG, LT, and ER decreased the ThT fluorescence by 58-100%. At the same concentrations, APS and NAP decreased the fluorescence by 28-100%. […] The formation and inhibition of Aβ fibrils was verified microscopically.\nThioflavin T (ThT) Assays. The effect of the five αB crystallin peptides (ST, DR, HG, LT, and ER) on Aβ1-42 fibril formation was measured using the ThT fluorescence assay (44-47) and compared with two known inhibitors of Aβ1-42 fibril formation (Tramiprosate and NAP)(34, 36) and a negative control neuropeptide Angiotensin 1 (AT1). Thioflavin T is a fluorescent dye that has a high affinity for amyloid fibrils and becomes fluorescent (excitation λ=450 nm, emission λ=486 nm) when bound to fibrils. For the Aβ1-42 assays, peptides and APS were dissolved to 2 mM in 0.25% DMSO and diluted accordingly, while Aβ1-42 was dissolved in 20 mM Tris-Cl, pH 7.40, and 100 mM NaCl. For the 5:1::inhibitor:Aβ1-42 assay, 10 μL of 450 μM peptide or APS was mixed with 10 μL of 90 μM Aβ1-42), 7 μL 20 mM Tris-Cl, 100 mM NaCl, pH 7.4 and 3 μL of 1 mM ThT. For the 1:1::inhibitor:Aβ1-42 assay, 10 μL of 90 μM peptide or APS was mixed with 10 μL of 90 μM Aβ(1-42), 7 μL 20 mM Tris-Cl, 100 mM NaCl, pH 7.4 and 3 μL of 1 mM ThT. For the 1:5::inhibitor:Aβ1-42 assay, 10 μL of 18 μM peptide or APS was mixed with 10 μL of 90 μM Aβ(1-42), 7 μL 20 mM Tris-Cl, 100 mM NaCl, pH 7.4 and 3 μL of 1 mM ThT. ThT fluorescence in relative fluorescence units (RFU) was measured using a Perkin Elmer Victor^3 V plate reader. Assays were performed in 384-well fluorescence plates in duplicates or triplicates. Samples were incubated at 37° C. for a total of 48 hours. ThT fluorescence was measured at 0, 24, and 48 hours. The effect of the peptides and APS was calculated as percentage fibril formation relative to Aβ1-42 alone (100%) at the end of 48 hours.",
  "data": [
    {"sequence": "DRFSVNLDVKHFS", "values": [
      {"measurement": "decrease in ThT fluorescence of Aβ1-42", "setting": "6 μM inhibitor, 37° C.", "result": "no effect"}
    ]},
    {"sequence": "ERTIPITRE", "values": [
      {"measurement": "decrease in ThT fluorescence of Aβ1-42", "setting": "6 μM inhibitor, 37° C.", "result": "no effect"},
      {"measurement": "decrease in ThT fluorescence of Aβ1-42", "setting": "30 μM inhibitor (1:1)", "result": "no effect"}
    ]},
    {"sequence": "HGKHEERQDE", "values": [
      {"measurement": "effect on Aβ1-42 fibril formation, over all concentrations", "setting": "any concentration", "result": "most effective inhibitor"}
    ]},
    {"sequence": "LTITSSLSSDGV", "values": [
      {"measurement": "decrease in ThT fluorescence of Aβ1-42", "setting": "6 μM inhibitor, 37° C.", "result": "no effect"},
      {"measurement": "decrease in ThT fluorescence of Aβ1-42", "setting": "30 μM inhibitor (1:1)", "result": "no effect"}
    ]},
    {"sequence": "STSLSPFYLRPPSFLRAP", "values": [
      {"measurement": "inhibition of Aβ fibrillation", "setting": "peptide to substrate concentration of 1:5", "result": 100, "unit": "%"}
    ]}
  ]
}
